This passage reports koff and Kd results from patent US20240132624A1 (Ablynx, published 2024).

In test [1] the target is T1, human FcRn/b2M (human, UniProt P61769 21-119, biotinylated).
T1 construct: bought recombinant biotinylated protein (ACRO FCM-H82W4 or Immunitrack ITF01); also called hFcRn; hFcRn/hb2M
In words: SPR pH 6.0.

In test [2] the target is T1, human FcRn/b2M. In words: SPR pH 6.0. The source holds these as a separate data set.
Test [3] concerns the target T2, cyno FcRn/b2M (cyno, UniProt Q8SPV9 24-297; Q8SPW0 21-119, biotinylated).
T2 construct: bought recombinant biotinylated protein (Immunitrack ITF05 or ACRO FCM-C82W5); also called cFcRn; cFcRn/cb2M
Description: SPR pH 6.0.

Test [4] concerns the target T1, human FcRn/b2M. In words: SPR pH 6.0. This is another data set of the same source.
Description: (§1) The affinities of the monovalent purified, tagless ISVDs were determined for human FcRn on ProteOn XPR36 (BioRad Laboratories, Inc.), the MASS-2 (Sierra sensors, Gmbh) or SPR-32 (Bruker Corporation) instrument. In the same way, the affinities of bivalent ISVD constructs comprising two of the same monovalent building blocks of purified, tagless ISVDs were determined for human FcRn on ProteOn XPR36 (BioRad Laboratories, Inc.), the MASS-2 (Sierra sensors, Gmbh) or SPR-32 (Bruker Corporation) instrument. For affinity measurements, ˜1000-3000RU (hFcRn/hb2M; ACRO Biosystems FCM-H82W4) was captured on a ProteOn NLC sensor (ProteOn) or Biotin-tag Capture Chip or a High Capacity Amine Chip (pre-immobilized with neutravidin; MASS-2). The ISVDs were injected at 6 different concentrations (between 1 and 4000 nM) and allowed to associate for 120s at 45 μL/min and dissociate for 600s-3600s at 45 μL/min. […] Evaluation of the sensorgrams was based on the 1:1 Langmuir dissociation model simultaneously fitting on and off-rates.
Test [5] deals with T2, cyno FcRn/b2M. Description: SPR pH 6.0. This is another data set of the same source.
Description: as §1
Test [6] deals with T1, human FcRn/b2M. In words: SPR pH 7.4.
Description: as §1
Test [7] addresses T2, cyno FcRn/b2M. In words: SPR pH 7.4.
Description: as §1
In test [8] the target is T1, human FcRn/b2M. In words: SPR pH 7.4. This is another data set of the same source.
Test [9] deals with T2, cyno FcRn/b2M. Description: SPR pH 7.4. The source holds these as a separate data set.
Test [10] has as its target T1, human FcRn/b2M. Description: SPR pH 6.0. The source holds these as a separate data set.
Description: (§2) The affinity of the purified, multivalent ISVD constructs for human and cyno FcRn was determined on the MASS-2 (Sierra sensors, Gmbh) instrument, hFcRn/hb2M and cFcRn/cb2M was captured on a Biotin-tag Capture Chip or a High Capacity Amine Chip (pre-immobilized with neutravidin). The ISVD constructs were injected at 6 different concentrations (between 1 and 4000 nM) and allowed to associate for 120 s at 45 μL/min and dissociate for 600 s-3600 s at 45 μL/min. […] Evaluation of the sensorgrams was based on the 1:1 Langmuir dissociation model simultaneously fitting on and off-rates.
The target of test [11] is T2, cyno FcRn/b2M. Description: SPR pH 6.0. The source holds these as a separate data set.
Description: as §2
Test [12] addresses T2, cyno FcRn/b2M. In words: SPR pH 7.4. This is another data set of the same source.
Description: as §2
Test [13] concerns the target T3, human serum albumin (human, UniProt P02768 25-609).
T3 construct: also called HSA
Description: SPR pH 6.0.
Description: (§3) The affinity of the purified, multivalent ISVD constructs for human and mouse serum albumin (HSA and MSA, respectively) was determined on the ProteOn XPR36 (BioRad Laboratories, Inc.) instrument. […] The ISVD constructs were injected at 6 different concentrations (between 1 and 500 nM) and allowed to associate for 120 s at 45 μL/min and dissociate for 600s-3600s at 45 μL/min. Evaluation of the sensorgrams was based on the 1:1 Langmuir dissociation model simultaneously fitting on and off-rates.

Test [14] concerns the target T4, mouse serum albumin (mouse, UniProt P07724 25-608).
T4 construct: also called MSA
In words: SPR pH 6.0.
Description: as §3

Test [15] has as its target T3, human serum albumin. In words: SPR pH 7.4.
Description: as §3
The target in test [16] is T4, mouse serum albumin. Description: SPR pH 7.4.
Description: as §3
The target in test [17] is T2, cyno FcRn/b2M. Description: SPR pH 6.0. The source holds these as a separate data set.
Description: as §2
Test [18] has as its target T3, human serum albumin. Description: SPR pH 6.0. This is another data set of the same source.
Description: as §3
Test [19] concerns the target T3, human serum albumin. Description: SPR pH 7.4. The source holds these as a separate data set.
Description: as §3
Test [20] has as its target T1, human FcRn/b2M. In words: SPR pH 7.4. This is another data set of the same source.
Description: as §2

Broadly, the koff is a measure of how fast the partners let go of each other. The term Kd denotes a measure of binding affinity in units of concentration. A low value points to a tighter complex.

T2 sequence (Q8SPV9 24-297 limits assumed, chain 1 of 2): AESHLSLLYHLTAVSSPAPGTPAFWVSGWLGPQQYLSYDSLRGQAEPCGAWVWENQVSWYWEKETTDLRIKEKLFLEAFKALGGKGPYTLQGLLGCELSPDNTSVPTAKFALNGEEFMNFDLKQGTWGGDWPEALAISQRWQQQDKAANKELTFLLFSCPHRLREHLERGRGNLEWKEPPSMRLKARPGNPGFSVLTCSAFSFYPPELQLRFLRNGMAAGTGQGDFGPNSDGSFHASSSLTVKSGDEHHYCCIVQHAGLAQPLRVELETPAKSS
T2 sequence (Q8SPW0 21-119 limits assumed, chain 2 of 2): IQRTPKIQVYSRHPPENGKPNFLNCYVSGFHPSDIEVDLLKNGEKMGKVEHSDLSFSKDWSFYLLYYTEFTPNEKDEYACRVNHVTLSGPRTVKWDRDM
T1 sequence (chain, as listed by the source limits assumed, chain 1 of 2): as the sequence (Q8SPV9 24-297 limits assumed, chain 1 of 2) above, with D39N, Q44E, S99G, G189S, N190S, M217L, T269S counted along it
T1 sequence (P61769 21-119 limits assumed, chain 2 of 2): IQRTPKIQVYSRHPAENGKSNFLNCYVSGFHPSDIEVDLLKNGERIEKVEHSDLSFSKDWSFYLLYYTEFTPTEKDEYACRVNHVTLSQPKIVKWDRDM
T4 sequence (P07724 25-608 limits assumed): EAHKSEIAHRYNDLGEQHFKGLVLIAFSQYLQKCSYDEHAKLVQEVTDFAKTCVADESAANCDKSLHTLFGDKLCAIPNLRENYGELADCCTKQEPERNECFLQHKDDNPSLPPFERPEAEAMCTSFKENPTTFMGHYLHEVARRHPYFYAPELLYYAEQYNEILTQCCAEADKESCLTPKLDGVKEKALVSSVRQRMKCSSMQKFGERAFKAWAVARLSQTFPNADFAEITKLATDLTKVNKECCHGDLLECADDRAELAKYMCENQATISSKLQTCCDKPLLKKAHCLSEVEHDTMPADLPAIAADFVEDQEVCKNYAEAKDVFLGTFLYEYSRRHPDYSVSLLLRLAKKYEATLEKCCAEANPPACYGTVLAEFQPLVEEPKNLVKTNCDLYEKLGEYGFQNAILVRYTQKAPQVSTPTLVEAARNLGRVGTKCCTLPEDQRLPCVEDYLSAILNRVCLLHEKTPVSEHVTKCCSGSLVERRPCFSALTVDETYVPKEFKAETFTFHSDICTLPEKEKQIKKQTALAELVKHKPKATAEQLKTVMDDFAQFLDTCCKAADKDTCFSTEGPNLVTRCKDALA

B1: T026301063 (VHH, name in Kabat numbering)
VHH: EVQLVESGGGVVQPGGSLRLSCAASTFTFSSYAMYWVRQAPGKGLEWVSAISQGGGSTDYADSVKGRFTISRDNSKNTLYLQMNSLRPEDTALYYCAADTLYTSLTWYSYWGQGTLVTVSS
notes: tagless
For the molecule B1, the koff in the test with human FcRn/b2M [1] was found to be 0.005 s⁻¹. Besides, the figures for the equilibrium dissociation constant (Kd) with human FcRn/b2M [2] and with cyno FcRn/b2M [3] were 62 nM and 41 nM, respectively.

B2: T026301100 (VHH, name in Kabat numbering)
VHH: EVQLVESGGGVVQPGGSLRLSCAASGFTFSSYDMYWVRQAPGKGLEWVSAISQGGGSTDYADSVKGRFTISRDNSKNTLYLQMNSLRPEDTALYYCAADTLYTDLTWYSYWGQGTLVTVSS
notes: tagless
Molecule B2 gave a koff with human FcRn/b2M [1] of 0.0039 s⁻¹. Besides, the Kd with human FcRn/b2M [2] came out at 140 nM; with cyno FcRn/b2M [3], 98 nM.

B3: T026301233 (other, name in Kabat numbering, not shown: small tags and cut ends)
chain: DVQLVESGGGVVQPGGSLRLSCAASTFTFSSYAMYWVRQAPGKGLEWVSAISQGGGSTDYADSVKGRFTISRDNSKNTLYLQMNSLRPEDTALYYCAADTLYTSLTSYSYWGQGTLVTVSS
notes: pentavalent ISVD construct
In the case of B3, the equilibrium dissociation constant (Kd) in the test with human FcRn/b2M [4] was 490 nM; in the test with cyno FcRn/b2M [5], 270 nM; with human FcRn/b2M [6] it was 750 nM; in the test with cyno FcRn/b2M [7] it was 420 nM.

B4: T026301098 (VHH, name in Kabat numbering)
VHH: EVQLVESGGGVVQPGGSLRLSCAASGFTFSDYAMYWVRQAPGKGLEWVSAISSGGGSTDYADSVKGRFTISRDNSKNTLYLQMNSLRPEDTALYYCAADTLYTSLTWYSYWGQGTLVTVSS
notes: tagless; also called T0263018B11 S31D
In the test with human FcRn/b2M [1], B4 gave a koff of 0.013 s⁻¹. Besides, the equilibrium dissociation constant (Kd) with human FcRn/b2M [2] was found to be 200 nM; with cyno FcRn/b2M [3] it was 140 nM.

B5: T026301091 (VHH, name in Kabat numbering)
VHH: EVQLVESGGGVVQPGGSLRLSCAASGFTFSEYDMYWVRQAPGKGLEWVSAISSGGGSTDYADSVKGRFTISRDNSKNTLYLQMNSLRPEDTALYYCAADTLYTSLTSYSYWGQGTLVTVSS
notes: tagless
For the molecule B5, in the test with human FcRn/b2M [1], the off-rate (koff) came to 0.0062 s⁻¹. Also, the Kd with human FcRn/b2M [2] came to 250 nM; with cyno FcRn/b2M [3], 160 nM.

B6: T026301070 (VHH, name in Kabat numbering)
VHH: EVQLVESGGGVVQPGGSLRLSCAASGFTFSEYDMYWVRQAPGKGLEWVSAISQGGGSTDYADSVKGRFTISRDNSKNTLYLQMNSLRPEDTALYYCAADTLYTSLTSYSYWGQGTLVTVSS
notes: tagless
Molecule B6 had an off-rate (koff) with human FcRn/b2M [1] of 0.0046 s⁻¹. Besides, the Kd in the test with human FcRn/b2M [2] turned out to be 150 nM; with cyno FcRn/b2M [3], 140 nM.

B7: T026301076 (VHH, name in Kabat numbering)
VHH: EVQLVESGGGVVQPGGSLRLSCAASGFTFSSYDMYWVRQAPGKGLEWVSAISQGGGSTDYADSVKGRFTISRDNSKNTLYLQMNSLRPEDTALYYCAADTLYTSLTKYSYWGQGTLVTVSS
notes: tagless
Turning to B7, the koff in the test with human FcRn/b2M [1] was 0.003 s⁻¹. Also, the Kd with human FcRn/b2M [2] was found to be 120 nM; with cyno FcRn/b2M [3], 37 nM.

B8: T026301117 (VHH, name in Kabat numbering)
VHH: EVQLVESGGGVVQPGGSLRLSCAASGFTFSEYAMYWVRQAPGKGLEWVSAISSGGGSTDYADSVKGRFTISRDNSKNTLYLQMNSLRPEDTALYYCAADTLYTSLTSYSYWGQGTLVTVSS
notes: tagless
Molecule B8 displayed a koff in the test with human FcRn/b2M [1] of 0.0067 s⁻¹. For the same molecule, the Kd with human FcRn/b2M [2] came out at 170 nM; with cyno FcRn/b2M [3], 110 nM.

B9: T026301234 (other, not shown: small tags and cut ends)
chain: DVQLVESGGGVVQPGGSLRLSCAASGFTFSSYAMYWVRQAPGKGLEWVSAISSGGGSTDYADSVKGRFTISRDNSKNTLYLQMNSLRPEDTALYYCAADTLYTSLTWYSYWGQGTLVTVSS
notes: pentavalent ISVD construct
On to B9, for which the equilibrium dissociation constant (Kd) in the test with human FcRn/b2M [4] was 26 nM; with cyno FcRn/b2M [5], 14 nM; with human FcRn/b2M [6], 740 nM; with cyno FcRn/b2M [7], 490 nM.

B10: T026301075 (VHH, name in Kabat numbering)
VHH: EVQLVESGGGVVQPGGSLRLSCAASTFTFSEYAMYWVRQAPGKGLEWVSAISSGGGSTDYADSVKGRFTISRDNSKNTLYLQMNSLRPEDTALYYCAADTLYTSLTWYSYWGQGTLVTVSS
notes: tagless
For B10, the Kd worked out at 21 nM in the test with cyno FcRn/b2M [3], 5600 nM with human FcRn/b2M [8] and 3100 nM with cyno FcRn/b2M [9].

B11: T026301087 (VHH, name in Kabat numbering)
VHH: EVQLVESGGGVVQPGGSLRLSCAASGFTFSEYDMYWVRQAPGKGLEWVSAISQGGGSTDYADSVKGRFTISRDNSKNTLYLQMNSLRPEDTALYYCAADTLYTSLTWYSYWGQGTLVTVSS
notes: tagless
With B11, in the test with human FcRn/b2M [1], the off-rate (koff) was 0.0011 s⁻¹. Moreover, the Kd with human FcRn/b2M [2] came to 25 nM; with cyno FcRn/b2M [3], 20 nM.

B12: T026301080 (VHH, name in Kabat numbering)
VHH: EVQLVESGGGVVQPGGSLRLSCAASGFTFSSYDMYWVRQAPGKGLEWVSAISSGGGSTDYADSVKGRFTISRDNSKNTLYLQMNSLRPEDTALYYCAADTLYTSLTSYSYWGQGTLVTVSS
notes: tagless
On to B12, for which, in the test with human FcRn/b2M [1], the koff is 0.0051 s⁻¹. The Kd worked out at 150 nM with human FcRn/b2M [2] and 130 nM with cyno FcRn/b2M [3].

B13: T026301230 (other, name in Kabat numbering, not shown: small tags and cut ends)
chain: DVQLVESGGGVVQPGGSLRLSCAASGFTFSSYAMYWVRQAPGKGLEWVSAISSGGGSTDYADSVKGRFTISRDNSKNTLYLQMNSLRPEDTALYYCAADTLYTSLTSYSYWGQGTLVTVSS
notes: pentavalent ISVD construct
Consider B13, for which the dissociation constant (Kd) amounted to 100 nM in the test with human FcRn/b2M [4], 54 nM with cyno FcRn/b2M [5], 670 nM in the test with human FcRn/b2M [6] and 580 nM in the test with cyno FcRn/b2M [7].

B14: T026301192 (bispecific antibody, name in Kabat numbering)
chain: DVQLVESGGGVVQPGGSLRLSCAASGFTFSSYAMYWVRQAPGKGLEWVSAISSGGGSTDYADSVKGRFTISRDNSKNTLYLQMNSLRPEDTALYYCAADTLYTELTWYSYWGQGTLVTVSSGGGGSGGGGSGGGGSGGGGSGGGGSGGGGSGGGGSEVQLVESGGGVVQPGGSLRLSCAASGFTFRSFGMSWVRQAPGKGPEWVSSISGSGSDTLYADSVKGRFTISRDNSKNTLYLQMNSLRPEDTALYYCTIGGSLSRSSQGTLVTVSSA
notes: bispecific ISVD construct; also called T0263018B11(E1D, S100E)-35GS-ALB23002-A
As for B14, the dissociation constant Kd with human FcRn/b2M [10] came out at 250 nM; with cyno FcRn/b2M [11], 140 nM; in the test with cyno FcRn/b2M [12] it was 480 nM; with human serum albumin [13] it was 5.7 nM; with mouse serum albumin [14] it was 64 nM; with human serum albumin [15] it was 12 nM. This molecule yielded a Kd in the test with mouse serum albumin [16] of 87 nM.

B15: T026301196 (bispecific antibody, name in Kabat numbering)
chain: DVQLVESGGGVVQPGGSLRLSCAASTFTFSSYAMYWVRQAPGKGLEWVSAISQGGGSTDYADSVKGRFTISRDNSKNTLYLQMNSLRPEDTALYYCAADTLYTSLTSYSYWGQGTLVTVSSGGGGSGGGGSGGGGSGGGGSGGGGSGGGGSGGGGSEVQLVESGGGVVQPGGSLRLSCAASGFTFRSFGMSWVRQAPGKGPEWVSSISGSGSDTLYADSVKGRFTISRDNSKNTLYLQMNSLRPEDTALYYCTIGGSLSRSSQGTLVTVSSA
notes: bispecific ISVD construct; also called T0263018B11(E1D, G26T, S52aQ, W100cS)-35GS-ALB23002-A
On to B15, for which the Kd with human FcRn/b2M [10] stood at 1000 nM; with cyno FcRn/b2M [11], 510 nM; with human serum albumin [13], 7.4 nM; with mouse serum albumin [14], 89 nM; with human serum albumin [15], 15 nM; in the test with mouse serum albumin [16] it was 120 nM.

B16: T026301366 (bispecific antibody, not shown: small tags and cut ends)
chain: EVQLVESGGGVVQPGGSLRLSCAASGFTFSSYAMYWVRQAPGKGLEWVSAISSGGGSTDYADSVKGRFTISRDNSKNTLYLQMNSLRPEDTALYYCAADTLYTSLTSYSYWGQGTLVTVSSGGGGSGGGGSGGGGSGGGGSGGGGSGGGGSGGGGSEVQLVESGGGVVQPGGSLRLSCAASGFTFRSFGMSWVRQAPGKGPEWVSSISGSGSDTLYADSVKGRFTISRDNSKNTLYLQMNSLRPEDTALYYCTIGGSLSRSSQGTLVTVSSA
notes: tetravalent ISVD construct; also called X-Y-FcRn(W100cS)-35GS-ALB23002
For the molecule B16, the Kd was determined as 180 nM with cyno FcRn/b2M [17], 10 nM in the test with human serum albumin [18] and 7.5 nM with human serum albumin [19].

B17: T026301198 (bispecific antibody, name in Kabat numbering)
chain: DVQLVESGGGVVQPGGSLRLSCAASGFTFSSYAMYWVRQAPGKGLEWVSAISSGGGSTDYADSVKGRFTISRDNSKNTLYLQMNSLRPEDTALYYCAADTLYTSLTSYSYWGQGTLVTVSSGGGGSGGGGSGGGGSGGGGSGGGGSGGGGSGGGGSEVQLVESGGGVVQPGGSLRLSCAASGFTFRSFGMSWVRQAPGKGPEWVSSISGSGSDTLYADSVKGRFTISRDNSKNTLYLQMNSLRPEDTALYYCTIGGSLSRSSQGTLVTVSSA
notes: bispecific ISVD construct; also called T0263018B11(E1D, W100cS)-35GS-ALB23002-A
Regarding B17, the Kd was found to be 67 nM in the test with cyno FcRn/b2M [11]; 2500 nM in the test with human FcRn/b2M [20]; 2900 nM with cyno FcRn/b2M [12]; 7.3 nM with human serum albumin [13]; 89 nM with mouse serum albumin [14]; 15 nM with human serum albumin [15]. Besides, the Kd in the test with mouse serum albumin [16] turned out to be 120 nM.
